Measured values reported in US20250195637A1.

Columns and labels:
[1] = molecular target: Wild-type F protein from the hMPV strain rC-85473 (human metapneumovirus (hMPV), strain rC-85473) (UniProt Q6WB98); test: flow cytometry, HMPV24-A647 on LLC-MK2 cells infected with rC-85473
[2] = molecular target: Wild-type F protein from the hMPV strain rC-85473 (human metapneumovirus (hMPV), strain rC-85473) (UniProt Q6WB98); test: flow cytometry, HMPV24-A647 on LLC-MK2 cells infected with Bivalent Metavac®-RSV v.1
[3] = molecular target: Wild-type F protein from the hMPV strain rC-85473 (human metapneumovirus (hMPV), strain rC-85473) (UniProt Q6WB98); test: flow cytometry, HMPV24-A647 on LLC-MK2 cells infected with Bivalent Metavac®-RSV v.2
[4] = molecular target: Wild-type F protein from the hMPV strain rC-85473 (human metapneumovirus (hMPV), strain rC-85473) (UniProt Q6WB98); test: flow cytometry, HMPV24-A647 on LLC-MK2 cells infected with Bivalent Metavac®-RSV v.3
[5] = molecular target: F RSV v.1, native (wild-type) F protein of hRSV, RSV A2 strain (human respiratory syncytial virus (hRSV), RSV A2 strain) (UniProt P03420); test: flow cytometry, Palivizumab-PE on LLC-MK2 cells infected with Bivalent Metavac®-RSV v.1
[6] = molecular target: F RSV v.2, mutated F protein from hRSV corresponding to the stabilized prefusion state (human respiratory syncytial virus (hRSV), RSV A2 strain, mutated) (UniProt P03420); test: flow cytometry, Palivizumab-PE on LLC-MK2 cells infected with Bivalent Metavac®-RSV v.2
[7] = molecular target: F RSV v.3, chimeric HMPV/RSV stabilized F pre-fusion form (mutated extracellular domain of F protein from hRSV with transmembrane and cytoplasmic domains of F protein from hMPV C-85473) (chimera of hRSV (RSV A2 strain, mutated) and hMPV (C-85473)); test: flow cytometry, Palivizumab-PE on LLC-MK2 cells infected with Bivalent Metavac®-RSV v.3

Substance	Infected cells expressing HMPV-F [%, GFP and A647 positive cells] [1] [%]	Infected cells expressing HMPV-F [%, GFP and A647 positive cells] [2] [%]	Infected cells expressing HMPV-F [%, GFP and A647 positive cells] [3] [%]	Infected cells expressing HMPV-F [%, GFP and A647 positive cells] [4] [%]	Infected cells expressing RSV-F [%, GFP and PE positive cells] [5] [%]	Infected cells expressing RSV-F [%, GFP and PE positive cells] [6] [%]	Infected cells expressing RSV-F [%, GFP and PE positive cells] [7] [%]
Monoclonal mouse antibody detecting the F HMPV protein (MAb HMPV24 BioRad MCA 4674)	98.9	94.8	94.8	85.2	–	–	–
Palivizumab Synagis® AstraZeneca, monoclonal humanized antibody detecting both pre-fusion and post-fusion forms of the F RSV protein	–	–	–	–	65.5	54.6	47.2
